# Variants at the floor of the assay were thinned out.
# B1: TPR 5TU (parent)
# chain: GGAUCUUCUCGAUCUAACAAAAAAGACAAAUCUGCCACAAAGCUUGAGAGCAUCUUCGGAUGCAGAGGCGGCAGCCUUCGGUGGCGCGAUAGCGCCAACGUUCUCAACUAUGACACGCAAAACGCGUGCUCCGUUGAAUGGAGUUUAUCAUG
# Variants of: B1
# Test: polymerase ribozyme fitness, log enrichment relative to wild type (log ratio); higher = more active; in vitro selection for triplet polymerase activity
# Outline: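 The heterodimeric triplet polymerase ribozyme's subunits were each mutagenized into PCR-built libraries and transcribed. Every library was selected once, in triplicate, by annealing with a biotinylated primer, the partner subunit and triplets, incubating frozen at −7 °C, gel-excising extended constructs, capturing on streptavidin beads and running RT-PCR. Input and output libraries were Illumina-sequenced, with genotypes kept only at ≥10 input reads and ≥1 read per output. Fitness, from inverse-variance-weighted replicate averages, is the base-2 logarithm of genotype enrichment over wild-type enrichment.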
row,Variant,polymerase ribozyme fitness (log ratio)
1,G50C G59C,-3.38
2,A3G U9G C51U G67C G81C A89G A97G,≤ -4.2
3,A29G C57A C93A C96A U145G,≤ -4.2
4,A52U C85U C96A C116U,-2.69
5,A19C G59A C76G C87U,≤ -4.2
6,A19U A52C U55A A60C C76U G83A C85U C129G A150G,≤ -4.2
7,A28U G84A C125U G126A G152U,≤ -4.2
8,G11A C123U A142U,-1.6
9,U56A G58A A73G C96U U102G G117A U135A G141A,≤ -4.2
10,C69U A122U,-1.27
11,G68A A147U,-4.05
12,A20C A41U G50A U90A C93U,≤ -4.2
13,G117C A137G,-0.587
14,U9A G83A,-4.06
15,G59U G88U G94U U102G A147G,≤ -4.2
16,C8A C79U A120C C125G A142U U146C,≤ -4.2
17,A19U A22G G67U C93A G126A C131A,≤ -4.2
18,G92A C103G,-4
19,G50A U144A,-1.6
20,A47G C93U,-0.775
21,U13C A16G A19C U56A G136U U145G,-3.34
22,G48U A49U A98G C116G G133U,≤ -4.2
23,U82G G92C,-1.23
24,A21C A89U U104A,-0.361

row,Variant,polymerase ribozyme fitness (log ratio)
1,A52G U55A,-0.0825
2,G48A C51A U56A G62C,-3.16
3,A16G G46A A73G G88U G94A C114G,≤ -4.2
4,U53G U56A A89G G94A A121G G141U G143A,≤ -4.2
5,A47U G59A C96G,-1.05
6,A52U C54U U55A C57G A73G G83C,≤ -4.2
7,A22U U55A C57A C85G,-1.44
8,C118U U145G,-1.09
9,A19G C51U C95A A115U,-3.61
10,A52G C87U C116U C149G,-3.76
11,A60U G84C C123G,-3.24
12,C5G C10U C57U C95U,-2.04
13,A20U C57G G88U A89U,≤ -4.2
14,U55A A89U,-0.224
15,A3C G83A G136C,-3.35
16,A29U C76G U82G G88C,≤ -4.2
17,C35U C54A U55A G80C C108U U127A,≤ -4.2
18,U4A A16U A29U U55G C72G U127A,≤ -4.2
19,C8A A17C G62A G68A C85U U111G,≤ -4.2
20,A16C C38A C76U,-2.07
21,A24C A66C G71C G84U,≤ -4.2
22,A20C G83C,-1.3
23,A39C C54A G94A C123U U139A,≤ -4.2
24,G58U A97G G112C C149A,≤ -4.2

row,Variant,polymerase ribozyme fitness (log ratio)
1,C10U C14U C54U C72U U78A C79U G94C A97U,≤ -4.2
2,A20C C51G C95G C149U,≤ -4.2
3,A52C A119U G141C,-2.95
4,A47C U56C C93U A106C,-4.09
5,A16G A37C U55G U56A G59A G83A C87U,-3.9
6,C38U C54A U82C U134G,-3.4
7,U31G G34A U61A C85G,≤ -4.2
8,C38U U61A,-0.395
9,U44C A98G,-3.97
10,G58U C69A C85U C132G G133C G141C,≤ -4.2
11,G46A G67A C87A A97C G143C,≤ -4.2
12,C57U G58A U104G C105U,-3.63
13,C8U U31A C32G C54U G83U U104A A107C,≤ -4.2
14,U15G C57U G58C C76A,-0.888
15,C72U C87A G117C G143U,≤ -4.2
16,U44A C57A C93A G133C,≤ -4.2
17,C8U G84A,-2.87
18,A20C G50A C63A C85U G117U,-1.09
19,A22U C43A G86A U90A,≤ -4.2
20,C87A G88U,≤ -4.2
21,C75U A113C,-3.87
22,C10A A39U U55A C57A U90G G92A,≤ -4.2
23,A49C C96A U102G G141U,0.794
24,U55A C69U C85A C87U,≤ -4.2

row,Variant,polymerase ribozyme fitness (log ratio)
1,G70C,-2.92
2,G86C C93G C105U,0.694
3,A23C A29G C96G U139G,-4.19
4,A22U A49U U55A G84U G100U C108U,≤ -4.2
5,U56A G84A C105A C131U,-1.2
6,C54G G80C A89G C93A,≤ -4.2
7,A28G G46A U55G C57A A73U C96A,≤ -4.2
8,C35U G59A,0.0486
9,C18G A21U C35U C95U,-1.12
10,A20G G140U,-3.41
11,C18G A22G A26U U31G U53A G68U C95U A115G,≤ -4.2
12,U82G C95U U102G,-3.59
13,U13G A60U G83C C108U,≤ -4.2
14,G25U A37G C85A U148C,≤ -4.2
15,A22G C85A,-1.12
16,C8U A20G A26U U56A C96U C105U G128C,≤ -4.2
17,G86U C93A,-0.194
18,U55G,-0.284
19,A20G C93U C99A G124U,-2.78
20,C57A C129U C131U U134C,1.02
21,C54U G84A,-0.613
22,C10G A23U U56A C93U,≤ -4.2
23,C75G G81U C95A G152U,≤ -4.2
24,C63A G70A G84A,≤ -4.2

row,Variant,polymerase ribozyme fitness (log ratio)
1,A37U G80C A91C A150U,≤ -4.2
2,A22U C87A C99U C103G A142C,≤ -4.2
3,C69U C93A C103U C116A U148G,≤ -4.2
4,U56A C57U C63U U101A U104C C108U,≤ -4.2
5,A3G U55A C93A,-3.2
6,U9A C87U,-2.96
7,C85A C114U,-3.28
8,G81C G141A,-1.94
9,C14U C51U U56A A119G,-2.23
10,U4A C35A U53C C96G A122U,≤ -4.2
11,U55G C79G,-3.78
12,A19U G83C A89C A97G,-2.32
13,A20G U55A G59U C76U C96A,-1.18
14,A28C G94C,-4.04
15,A22U,0.491
16,A19U C57U G81C C93G C125A,-3.42
17,A20C G68C G83C A89U U102A G140U,≤ -4.2
18,G62A C96A,-2.92
19,C8U A19G C79U C85G,≤ -4.2
20,A52G G65A U145A,-1.38
21,C5G G141A,0.249
22,C5A C54U C75G G80C U82A C87U C99G,≤ -4.2
23,A28G G58C C87U C99U,≤ -4.2
24,U90A C131A G143A,-4.19

row,Variant,polymerase ribozyme fitness (log ratio)
1,A20U C79U,-3.19
2,A22U G68U G74A U78A G92A C125A G140U U145G,≤ -4.2
3,C38A G80U C125U,-2.34
4,G88U C99A U146C,≤ -4.2
5,U148G,-3.37
6,U130G U135C,-4.07
7,G68A C105U,-3.51
8,A30U U56A G58C C132A A147U,≤ -4.2
9,C93U G124A C131U U139G,0.429
10,A22U C38U U53A G74C U90C A120U,≤ -4.2
11,C85U A122U,-0.795
12,C38A U53A C95G A97G C116U,-2.22
13,A12G U44A A52G C85A C118U,≤ -4.2
14,G84A A147G,-2.67
15,A28C G67C C87A U109A,≤ -4.2
16,A49G G50C C69G C103G G136U,≤ -4.2
17,C8G U31A U33G U53G U55G G94A G126C,≤ -4.2
18,A3G A16U C18U A22C G25C C43U A49C G68C A106C U145C,≤ -4.2
19,U13C G25A A29C C36G C118A,-4.18
20,A26G C93A G124A,-4.18
21,C10U A16U A28G G46A A91G C93A U111G G152U,≤ -4.2
22,U15G G59A G88A C132U,≤ -4.2
23,G50A U53A,-1.59
24,A24C G34C C35A A122G U134A G143C,-4.11

row,Variant,polymerase ribozyme fitness (log ratio)
1,C32U G68A,-3.89
2,C10U A12U A121C,-4.08
3,G34A A39C C93A U104C,≤ -4.2
4,U135A U148G,-3.41
5,C54U C85U,-0.491
6,U4A A41G G84A U139G U146C,-0.701
7,C5G U139A,-3.99
8,A17G A20U A52C A89G C95A A106U U134A,≤ -4.2
9,C5G A24C G48A A52C C85U G140U,≤ -4.2
10,A37C G84U A120G,-2.19
11,C14U G25U U31G C43A A47C G62A A91G G94C U104C A138U G140C U145G,≤ -4.2
12,A30U G68C G81C G94A A98C U104C,≤ -4.2
13,C18A A73U G86A A110G,≤ -4.2
14,U55C C85A A119G A137U,≤ -4.2
15,A23C A30C A52C C95U U144A,≤ -4.2
16,A23C G34U,-3.82
17,A22G G86U,-0.647
18,U55G C87A,-4.1
19,C57G U82C C95U C125A C131U U135C U146C,-3.38
20,U56G C57U G62U A66G C75U G83U,≤ -4.2
21,A3U C27G C95U A150G,≤ -4.2
22,A28G G42U G88A C93U C118A,≤ -4.2
23,C51U G58U A91U C96U G100C A138C,≤ -4.2

# From the RNAGym collection of RNA variant scans (doi:10.1073/pnas.2313332121)
